Test results from patent US10093741 (FUSION PHARMACEUTICALS, dated 2018).

Columns and labels:
[1] = biological target: T1, insulin-like growth factor-1 receptor (IGF-1R) (human, UniProt P08069 31-1367); assay: cell-based or functional assay
[2] = biological target: T1, insulin-like growth factor-1 receptor …; assay: cell-based or functional assay; remark: listed apart in the source
[3] = biological target: T1, insulin-like growth factor-1 receptor …; assay: saturation radioligand binding on IGF-1R expressing A431 cells, 4 °C, specific binding fitted to single-site model
Method: The purpose of this assay was to ensure that these new radioconjugates maintained binding characteristics consistent with the native antibody in an IGF-1R expressing A431 cell line. Twenty-four hours prior to the start of the experiment, 1.5×10^5 A431 cells were seeded in 48-well microplates in 500 μl supplemented medium. The radioconjugate was diluted with binding buffer (PBS+0.5% BSA) to a range of concentrations from 0.08 nM to 40 nM; final assay concentration 0.04 to 20 nM. At the start of the assay, the media is aspirated, discarded and 500 μl of serum-free DMEM was added to each well. The plates were incubated at 37° C. for 1 hour. Following incubation, media was aspirated from each well and discarded. The cells were washed and 100 μl of binding buffer (total binding assay) or, for non-specific binding assay, 4 μM cold-antibody was added to designated wells. Plates were incubated at 4° C. for 1 hour with mild shaking. Following the blocking step, 100 μl of radioimmunoconjugate was added to each well. The plates were then incubated at 4° C. for 2 hours. Following incubation, the contents of each well was aspirated and discarded. The cells were washed twice with PBS and were then lysed with 1% Triton-X-100. The lysates were transferred to counting tubes and run with radioconjugate standards on the Wizard 1470 gamma counter to determine the radioactivity content (in counts per minute (CPM)) for each lysate. The remaining lysate from each well (25 μl) was transferred to a 96-well plate, and the protein content of each lysate determined using a standard protein quantification assay. Total, non-specific and specific ligand binding determinations, mass of bound conjugate in each lysate were calculated by converting lysate CPM to fmol bound using the specific activity of the conjugate standards and then normalizing the fmol bound to the protein content of each lysate (in milligrams). Specific binding was determined by subtracting the non-specific binding from total binding. […]

[4] = biological target: T1, insulin-like growth factor-1 receptor …; assay: saturation radioligand binding on A431 epidermoid carcinoma cells
Method: The plates were incubated at 37° C. for 1 h. Following incubation, media was aspirated from each well and discarded. The cells were washed and 100 µl of binding buffer (total binding) or 4 µM cold-antibody (non-specific binding) added to designated wells. Plates were incubated at 4° C. for 1 h with mild shaking. Following the blocking step, 100 µl of labeled conjugate was added to each well. The plates were then incubated at 4° C. for 2 h. Following incubation, the contents of each well was aspirated and discarded. The cells were washed twice with PBS and were then lysed with 1% Triton-X-100. The lysates were transferred to counting tubes and run with labeled conjugate standards on the Wizard 1470 gamma counter to determine the radioactivity content (in counts per minute (CPM)) for each lysate. The remaining lysate from each well (25 µl) was transferred to a 96-well plate, and the protein content of each lysate determined using a standard protein quantification assay. Total, non-specific and specific ligand binding determinations, mass of bound conjugate in each lysate were calculated by converting lysate CPM to fmol bound using the specific activity of the conjugate standards and then normalizing the fmol bound to the protein content of each lysate (in milligrams). Specific binding was determined by subtracting the non-specific binding from total binding. […]

[5] = biological target: T1, insulin-like growth factor-1 receptor …; assay: saturation radioligand binding on A549 cells (NSCLC)
Method: (§1) Twenty-four hours prior to the start of the experiment, 1.5 ×10^5 cells were seeded in 48-well microplates in 500 µl supplemented medium. The radiolabeled conjugate was diluted with binding buffer (PBS+0.5% BSA) to a range of concentrations from 0.08 nM to 40 nM; final assay concentration 0.04 to 20 nM. At the start of the assay, the media is aspirated, discarded and 500 µl of serum-free DMEM was added to each well. The plates were incubated at 37° C. for 1 h. Following incubation, media was aspirated from each well and discarded. The cells were washed and 100 µl of binding buffer (total binding) or 4 µM cold-antibody (non-specific binding) added to designated wells. […] The lysates were transferred to counting tubes and run with labeled conjugate standards on the Wizard 1470 gamma counter to determine the radioactivity content (in counts per minute (CPM)) for each lysate. The remaining lysate from each well (25 µl) was transferred to a 96-well plate, and the protein content of each lysate determined using a standard protein quantification assay. Total, non-specific and specific ligand binding determinations, mass of bound conjugate in each lysate were calculated by converting lysate CPM to fmol bound using the specific activity of the conjugate standards and then normalizing the fmol bound to the protein content of each lysate (in milligrams). […]

[6] = biological target: T1, insulin-like growth factor-1 receptor …; assay: saturation radioligand binding on H226 cells (NSCLC)
Method: as §1

[7] = biological target: T1, insulin-like growth factor-1 receptor …; assay: saturation radioligand binding on PC-3 cells (prostate)
Method: as §1

[8] = biological target: T1, insulin-like growth factor-1 receptor …; assay: saturation radioligand binding on LnCaP cells (prostate)
Method: as §1

[9] = biological target: T1, insulin-like growth factor-1 receptor …; assay: saturation radioligand binding on Du-145 cells (prostate)
Method: as §1

[10] = biological target: T1, insulin-like growth factor-1 receptor …; assay: saturation radioligand binding on BxPC3 cells (pancreatic)
Method: as §1

[11] = biological target: T1, insulin-like growth factor-1 receptor …; assay: saturation radioligand binding on MiaPaca-II cells (pancreatic)
Method: as §1

[12] = biological target: T1, insulin-like growth factor-1 receptor …; assay: saturation radioligand binding on A431 cells (epidermoid carcinoma)
Method: as §1

T1 sequence (P08069 31-1367): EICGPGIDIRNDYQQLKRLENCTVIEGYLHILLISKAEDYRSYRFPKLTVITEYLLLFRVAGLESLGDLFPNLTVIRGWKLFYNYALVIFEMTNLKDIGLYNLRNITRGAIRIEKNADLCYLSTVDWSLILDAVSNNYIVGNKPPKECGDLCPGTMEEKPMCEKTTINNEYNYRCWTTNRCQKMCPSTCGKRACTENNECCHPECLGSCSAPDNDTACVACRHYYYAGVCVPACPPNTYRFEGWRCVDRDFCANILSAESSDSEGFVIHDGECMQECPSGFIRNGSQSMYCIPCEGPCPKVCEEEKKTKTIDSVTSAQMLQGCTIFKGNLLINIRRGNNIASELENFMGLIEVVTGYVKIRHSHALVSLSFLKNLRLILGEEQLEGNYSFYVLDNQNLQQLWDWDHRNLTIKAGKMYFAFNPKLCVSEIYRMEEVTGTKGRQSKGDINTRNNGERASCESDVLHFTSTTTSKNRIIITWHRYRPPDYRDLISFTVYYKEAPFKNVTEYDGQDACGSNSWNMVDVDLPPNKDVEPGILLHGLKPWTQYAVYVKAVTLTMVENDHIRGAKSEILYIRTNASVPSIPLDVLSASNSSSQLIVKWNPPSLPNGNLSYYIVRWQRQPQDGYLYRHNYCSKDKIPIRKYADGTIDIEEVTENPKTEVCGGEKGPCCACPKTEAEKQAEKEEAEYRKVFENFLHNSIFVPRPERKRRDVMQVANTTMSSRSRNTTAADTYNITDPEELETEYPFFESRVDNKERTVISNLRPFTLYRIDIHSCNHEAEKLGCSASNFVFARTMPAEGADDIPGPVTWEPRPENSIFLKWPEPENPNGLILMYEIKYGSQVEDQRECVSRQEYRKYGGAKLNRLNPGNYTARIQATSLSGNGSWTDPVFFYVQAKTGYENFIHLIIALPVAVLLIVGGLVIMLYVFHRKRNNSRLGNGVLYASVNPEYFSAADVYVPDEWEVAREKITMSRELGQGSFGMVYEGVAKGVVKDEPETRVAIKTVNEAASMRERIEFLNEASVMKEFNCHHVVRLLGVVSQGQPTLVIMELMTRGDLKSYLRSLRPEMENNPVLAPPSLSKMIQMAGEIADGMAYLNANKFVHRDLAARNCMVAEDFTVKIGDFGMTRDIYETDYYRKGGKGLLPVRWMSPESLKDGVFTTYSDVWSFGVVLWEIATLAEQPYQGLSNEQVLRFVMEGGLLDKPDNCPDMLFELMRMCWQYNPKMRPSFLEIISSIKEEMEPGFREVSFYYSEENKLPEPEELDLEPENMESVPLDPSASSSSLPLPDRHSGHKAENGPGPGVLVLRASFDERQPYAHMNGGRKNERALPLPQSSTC

B1: HuMIGF-1R (AVE1642) (antibody, human IgG1, kappa)
light: DVVMTQTPLSLPVSLGDPASISCRSSQSIVHSNVNTYLEWYLQKPGQSPRLLIYKVSNRFSGVPDRFSGSGAGTDFTLRISRVEAEDLGIYYCFQGSHVPPTFGGGTKLEIKRTVAAPSVFIFPPSDEQLKSGTASVVCLLNNFYPREAKVQWKVDNALQSGNSQESVTEQDSKDSTYSLSSTLTLSKADYEKHKVYACEVTHQGLSSPVTKSFNRGEC
heavy: not shown
Question: For B1, which “Conjugate Potency (IC50; µg/mL): inhibition of IGF-1 ligand stimulated autophosphorylation of IGF-1R in A431 cells, phospho-IGF-1R ELISA; degree of substitution 0 DOTA/mAb (native antibody)” value [1] is on record?
Answer: The value was 0.04 µg/mL.

Question: What about the “Compound Potency (IC50; µg/mL): inhibition of IGF-1 ligand stimulated autophosphorylation of IGF-1R in A431 cells, phospho-IGF-1R ELISA” value [2] of the same binder?
Answer: Its value is 0.04 µg/mL.

B2: [^177Lu]-Compound A-HuMIGF-1R (antibody)
light: B1 light
heavy: not shown
modifications: Compound A (DOTA-GA anhydride) chelate conjugated to the antibody, sites not stated; chelate loaded with 177Lu
notes: also called Commercial Standard
Question: B2 was tested. Which Kd [3] did it give?
Answer: The Kd was 2.9 nM.

B3: [^177Lu]-Compound B-HuMIGF-1R (antibody)
light: B1 light
heavy: not shown
modifications: Compound B (DOTA-GA with undecanoyl linker, TFP ester) conjugated to the antibody, sites not stated; chelate loaded with 177Lu
Question: B3 was tested. Which Kd [3] did it give?
Answer: Its Kd is 2 nM.

B4: [^111In]-Compound C-HuMIGF-1R (antibody)
light: B1 light
heavy: not shown
modifications: Compound C (DOTA-GA with PEG3 linker, TFP ester) conjugated to the antibody, sites not stated; chelate loaded with 111In
Question: B4 was tested. Which “Compound Potency (IC50; µg/mL): inhibition of IGF-1 ligand stimulated autophosphorylation of IGF-1R in A431 cells, phospho-IGF-1R ELISA” value [2] did it give?
Answer: Its value is 0.19 µg/mL.

Question: What about the Kd [4] of the same binder?
Answer: The Kd was 6.9 nM.

B5: [^177Lu]-Compound C-HuMIGF-1R (antibody)
light: B1 light
heavy: not shown
modifications: Compound C (DOTA-GA with PEG3 linker, TFP ester) conjugated to the antibody, sites not stated; chelate loaded with 177Lu
Question: Which results are given for B5?
Answer: Compound Potency (IC50; µg/mL): inhibition of IGF-1 ligand stimulated autophosphorylation of IGF-1R in A431 cells, phospho-IGF-1R ELISA [2]: 0.04 µg/mL; Kd [5]: 0.7 nM; Kd [6]: 2.3 nM; Kd [7]: 1.7 nM; Kd [8]: 1.6 nM; Kd [9]: 3 nM; Kd [10]: 2.9 nM; Kd [11]: 1.9 nM; Kd [12]: 2.2 nM; Kd [3]: 2.2 nM
